Laboratory results reported in US6642368B1, “Programmed cell death and caspase-12” (The General Hospital Corporation, priority 1998, dated 2003).

Experiments:
[1] = test system: Rat-1/bcl-2; assay: Effect of cell death suppressor bcl-2 on caspase-12 killing activity; assay type: cell-based
Experimental: FIGS. 5A-5B. Effect of cell death suppressors on the killing activity of caspase-12. […] Cell death was assayed as described in FIG. 4C. […] The data from transfection of the parental cell line, Rat-1 (FIG. 4C), are included in the figures for comparison. The lacZ construct was also used for transfection as a control.
To determine if expression of bcl-2 and crmA can inhibit apoptosis induced by casp-12 overexpression, casp-12L-lacZ fusion construct was transfected into stable cell lines of Rat-1 that overexpresses either bcl-2 or crmA (Miura, M., et al., Cell 75:653-660 (1993)). Cell death was assayed as described above (Example 3). […] The magnitude of the bcl-2 suppression against toxicity of casp-12 overexpression was about 10% (60% for Rat-1, 50% for Rat-1/bcl-2) which is much smaller than that observed for ICE and casp-2 (FIG. 5A; Wang, L., et al., Cell 78:739-750 (1994)).

[2] = molecular target: T1, caspase-12Δ2 (Mus musculus, UniProt O08736); assay: Inhibition of cleavage of pro-caspase-12 by purified caspase-12Δ2; assay type: biochemical; details: preincubation 1 mM DTNB 25° C. 60 min or 2 mM iodoacetamide 0° C. 60 min
T1 construct: made in house; host or cells: E. coli BL21(DE3) pLys
Experimental: ICE, casp-2 and casp-3 were cloned into a pET-15b vector (Novagen) and their expression was induced in the presence of 0.2-0.3 mM IPTG (Wang, S., et a., J. Biol. Chem. 271:20580-20587 (1996); Cryns, V. L., et al., J. Biol. Chem. 271:31277-31282 (1996)). Bacterial lysates containing the ICE-like proteases were prepared as described (Wang, S., et al., J. Biol. Chem. 271:20580-20587 (1996); Cryns, V. L., et al., J. Biol. Chem. 271:31277-31282 (1996)). [^35S]-labeled proteins were prepared by in vitro transcription and translation using a TNT coupled reticulocyte lysate system (Promega) and [^35S]methionine (Amersham). Labeled proteins were incubated at 37° C. with purified caspase-12Δ2 or at 30° C. with E. coli lysates containing the caspase family members. The reaction mixture contained 25 mM Hepes (pH 7.5) with 5 mM EDTA, 5 mM dithiothreitol, 10% sucrose, 10 μg/ml leupeptin and 250 μM phenylmethylsulfonyl fluoride. Amount of proteins used for cleavage reaction were: 0.1 μg for partially purified caspase-12Δ2, 25-70 μg for E. coli lysate. […] Cleavage products were analyzed by either 10- or 15% SDS-polyacrylamide gel electrophoresis. […]

[3] = test system: T2, pro-caspase-12 (caspase-12L, full-length precursor, 419 residues, 48 kDa)
T2 sequence: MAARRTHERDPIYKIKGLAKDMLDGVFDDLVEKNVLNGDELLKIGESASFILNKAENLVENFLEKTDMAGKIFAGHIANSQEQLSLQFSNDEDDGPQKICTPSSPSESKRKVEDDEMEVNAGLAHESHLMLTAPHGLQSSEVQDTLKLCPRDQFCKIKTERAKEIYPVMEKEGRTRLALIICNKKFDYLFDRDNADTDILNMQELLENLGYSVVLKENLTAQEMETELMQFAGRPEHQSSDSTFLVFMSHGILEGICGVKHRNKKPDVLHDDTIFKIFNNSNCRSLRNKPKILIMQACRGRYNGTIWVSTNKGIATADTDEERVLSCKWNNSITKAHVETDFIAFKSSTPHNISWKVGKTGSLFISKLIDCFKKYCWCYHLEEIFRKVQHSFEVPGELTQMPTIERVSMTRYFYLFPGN

[4] = test system: T3, caspase-12Δ (Gly95-Asn419 of caspase-12L, with an artificial initiation codon), [35S]-labeled
T3 sequence: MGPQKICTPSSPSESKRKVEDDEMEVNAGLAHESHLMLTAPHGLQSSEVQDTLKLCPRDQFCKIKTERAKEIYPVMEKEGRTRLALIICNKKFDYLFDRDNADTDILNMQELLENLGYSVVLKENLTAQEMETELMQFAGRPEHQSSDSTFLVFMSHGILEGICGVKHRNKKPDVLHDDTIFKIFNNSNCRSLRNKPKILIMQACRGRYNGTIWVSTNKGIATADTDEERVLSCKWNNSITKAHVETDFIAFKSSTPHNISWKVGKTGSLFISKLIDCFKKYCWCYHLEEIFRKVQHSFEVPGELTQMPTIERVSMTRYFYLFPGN

[5] = test system: Rat-1 cells; assay: Cell death induced by transient overexpression of lacZ fusion constructs, X-gal staining; assay type: cell-based; details: lacZ fusion construct, 24 hr after transfection
Text: FIGS. 4A-4C. Cell death induced by overexpression of caspase-12. […] The round cells expressing the casp-12L-lacZ fusion proteins show condensed and fragmented nuclei. […] The data shown are the percentage of round blue cells among total number of blue cells counted. In each transfection, over 200 blue cells were randomly chosen and counted. The data of Rat-1 cells collected from at least three independent experiments. The constructs used were: casp-12L-lacZ, casp-12S-lacZ, casp-12Δ-lacZ, ICE-lacZ, lacZ. Rat embryonic fibroblast cells (REF) were also transfected with either casp-12L-lacZ or lacZ.
To examine if expression of caspase-12 induces apoptosis, a transient expression system was used to overexpress caspase-12 in mammalian cells. […] Transfected cells are easily detected by staining with X-gal because of the β-galactosidase activity of lacZ. Expression constructs of casp-12L and casp-12S fused with lacZ gene in pcDNA3 vector, which contains the cytomegalovirus (CMV) promoter, were generated. These expression constructs were introduced into Rat-1 cells by transfection, and the expression of the genes were examined 24 hr after transfection using X-gal reaction.
Rat-1, rat embryonic fibroblast cells, NG108-15, HeLa and COS-1 were maintained in culture at 37° C. with 5% CO2 in Dulbecco's modified Eagle's medium containing 10% (v/v) fetal bovine serum (BioWhittaker) and 50 units/ml penicillin and 50 μg/ml streptomycin (Sigma). The day before transfection, cells were seeded at a density of 1.3×10^4 cells/cm^2. Expression constructs were transferred to cells with either calcium phosphate or lipofectamine (GIBCO BRL) as previously described (Miura, M., et al., Cell 75:653-660 (1993); Kumar, S., et al., Genes and Development 8:1613-1626 (1994); Wang, L., et al., Cell 78:739-750 (1994)). The expression of chimeric genes in cells was detected by staining of cells with 5-bromo-4-chloro-3-indolyl β-D-galactoside (X-gal) as previously described (Miura, M., et al., Cell 75:653-660 (1993); Kumar, S., et al., Genes and Development 8:1613-1626 (1994); Wang, L., et al., Cell 78:739-750 (1994)). Immunostaining of transfected cells was done as previously described using mouse monoclonal anti-lacZ antibody (Miura, M., et al., Cell 75:653-660 (1993); Kumar, S., et al., Genes and Development 8:1613-1626 (1994); Wang, L., et al., Cell 78:739-750 (1994)).

Molecule: Bcl-2: mammalian cell death suppressor, homolog of C. elegans ced-9
- magnitude of bcl-2 suppression against toxicity of casp-12 overexpression ([1]; 60% for Rat-1 versus 50% for Rat-1/bcl-2): about 10%
- inhibition of cell death induced by overexpression of casp-12 ([1]; Rat-1/bcl-2, FIG. 5A): only very weakly inhibited

Molecule: O=C(O)c1cc(SSc2ccc([N+](=O)[O-])c(C(=O)O)c2)ccc1[N+](=O)[O-] [5,5′-dithio-bis(2-nitrobenzoic acid)]
- inhibition of proteolytic activity of caspase-12Δ2 by pretreatment with thiol reagent [2]: completely inhibited

Molecule: caspase-2 (E. coli lysate, expressed from pET-15b)
- in vitro cleavage of [35S]-labeled caspase-12 precursor by E. coli lysate containing the caspase [3]: Cleavage of pro-caspase-12 by caspase-2 generated a fragment of about 40 kDa at a lower cleavage efficiency, compared to caspase-3 digestion

Molecule: caspase-3 (E. coli lysate, expressed from pET-15b)
- in vitro cleavage of the [35S]-labeled truncated form [4]: Caspase-3 treatment of the truncated form did not produce any smaller fragments
- in vitro cleavage of [35S]-labeled caspase-12 precursor by E. coli lysate containing the caspase [3]: caspase-2 and caspase-3 can cleave pro-caspase-12 protein, generating smaller fragments of about 40 kDa

Molecule: NC(=O)CI [iodoacetamide]
- inhibition of proteolytic activity of caspase-12Δ2 by pretreatment with thiol reagent [2]: completely inhibited

B1: caspase-12S: alternatively spliced short form of caspase-12, 349 amino acid residues (SEQ ID NO:14) (protein)
chain: MAARRTHERDPIYKIKEFSNDEDDGPQKICTPSSPSESKRKVEDDEMEVNAGLAHESHLMLTAPHGLQSSEVQDTLKLCPRDQFCKIKTERAKEIYPVMEKEGRTRLALIICNKKFDYLFDRDNADTDILNMQELLENLGYSVVLKENLTAQEMETELMQFAGRPEHQSSDSTFLVFMSHGILEGICGVKHRNKKPDVLHDDTIFKIFNNSNCRSLRNKPKILIMQACRGRYNGTIWVSTNKGIATADTDEERVLSCKWNNSITKAHVETDFIAFKSSTPHNISWKVGKTGSLFISKLIDCFKKYCWCYHLEEIFRKVQHSFEVPGELTQMPTIERVSMTRYFYLFPGN
modifications: lacZ fusion
- percentage of cell death (round blue cells among total blue cells) [5]: about 60%

B2: caspase-12Δ: truncated caspase-12, amino acid residues 95-419 of SEQ ID NO:2 (protein)
chain: GPQKICTPSSPSESKRKVEDDEMEVNAGLAHESHLMLTAPHGLQSSEVQDTLKLCPRDQFCKIKTERAKEIYPVMEKEGRTRLALIICNKKFDYLFDRDNADTDILNMQELLENLGYSVVLKENLTAQEMETELMQFAGRPEHQSSDSTFLVFMSHGILEGICGVKHRNKKPDVLHDDTIFKIFNNSNCRSLRNKPKILIMQACRGRYNGTIWVSTNKGIATADTDEERVLSCKWNNSITKAHVETDFIAFKSSTPHNISWKVGKTGSLFISKLIDCFKKYCWCYHLEEIFRKVQHSFEVPGELTQMPTIERVSMTRYFYLFPGN
modifications: lacZ fusion
- percentage of cell death (round blue cells among total blue cells) [5]: 60%
